Laboratory results published in US20220098265A1 (MEDIMMUNE LIMITED, priority 2012, published 2022).
Where two headings read alike, the source gives them in different places. Blank lines part the entries; values can stand above or below the molecule they belong to. Numbered stars: 1 amine (or outer) side, 2 acyl side, 3 side chain; on linkers, the order of the positions; unused ones are H or OH. Side chains are listed from the residue outwards. Ends that are not written are not given here. Peptide text beside a SMILES is read from it. * marks the point of attachment. γGlu = O=C(O)[C@H](CCC(=O)[*:2])N[*:1]; Palmitoyl = CCCCCCCCCCCCCCCC(=O)*

Legend:
[1] = molecular target: Human GlucR (Homo sapiens, UniProt P47871); conditions: read-out: hGlucR EC50; assay 1; additional peptides (Table 4)
[2] = molecular target: T1, human glucagon receptor (human, UniProt P47871 26-477); test: cell-based or functional assay
[3] = molecular target: T2, human GLP-1 receptor (human, UniProt P43220 24-463); test: cell-based or functional assay
[4] = molecular target: T3, human glucose-dependent insulinotropic peptide (gastric inhibitory polypeptide) receptor (human, UniProt P48546 22-466); test: cell-based or functional assay
T3 sequence (looked up): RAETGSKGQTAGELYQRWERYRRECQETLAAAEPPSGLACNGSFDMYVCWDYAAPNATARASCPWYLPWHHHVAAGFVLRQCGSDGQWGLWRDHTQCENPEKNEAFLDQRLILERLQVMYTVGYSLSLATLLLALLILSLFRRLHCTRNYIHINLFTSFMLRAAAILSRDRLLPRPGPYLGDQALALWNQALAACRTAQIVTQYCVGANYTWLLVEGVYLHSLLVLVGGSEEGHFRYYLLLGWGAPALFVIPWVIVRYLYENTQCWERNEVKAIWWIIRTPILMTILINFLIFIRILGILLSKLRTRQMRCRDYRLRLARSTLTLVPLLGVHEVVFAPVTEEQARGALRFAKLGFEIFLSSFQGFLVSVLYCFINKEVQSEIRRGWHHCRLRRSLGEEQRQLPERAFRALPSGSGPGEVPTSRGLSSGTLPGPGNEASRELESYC

[5] = molecular target: T1, human glucagon receptor; test: cell-based or functional assay; remark: listed apart in the source
[6] = molecular target: T2, human GLP-1 receptor; test: cell-based or functional assay; remark: listed apart in the source
[7] = molecular target: T3, human glucose-dependent insulinotropic …; test: cell-based or functional assay; remark: listed apart in the source
[8] = molecular target: T3, human glucose-dependent insulinotropic …; test: cell-based or functional assay; remark: listed apart in the source
[9] = molecular target: human serum albumin (Homo sapiens, UniProt P02768); test: calculated from the variation in cAMP generation with the HSA concentration (assay 2)
[10] = molecular target: T4, mouse GLP-1 receptor (mouse, UniProt O35659 22-463); test: cell-based or functional assay
T4 sequence (looked up): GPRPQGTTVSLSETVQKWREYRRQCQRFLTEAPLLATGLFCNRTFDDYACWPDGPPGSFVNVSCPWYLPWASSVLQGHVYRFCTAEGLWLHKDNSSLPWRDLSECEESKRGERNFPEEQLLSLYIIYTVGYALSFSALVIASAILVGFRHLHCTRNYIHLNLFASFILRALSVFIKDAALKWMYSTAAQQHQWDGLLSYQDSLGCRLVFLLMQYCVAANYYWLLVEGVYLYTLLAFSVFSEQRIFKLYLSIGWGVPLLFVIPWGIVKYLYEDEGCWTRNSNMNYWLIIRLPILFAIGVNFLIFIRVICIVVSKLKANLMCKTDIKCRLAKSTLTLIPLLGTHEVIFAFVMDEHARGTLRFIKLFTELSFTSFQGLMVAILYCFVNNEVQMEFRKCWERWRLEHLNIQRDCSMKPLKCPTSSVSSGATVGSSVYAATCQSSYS

T1 sequence (P47871 26-477): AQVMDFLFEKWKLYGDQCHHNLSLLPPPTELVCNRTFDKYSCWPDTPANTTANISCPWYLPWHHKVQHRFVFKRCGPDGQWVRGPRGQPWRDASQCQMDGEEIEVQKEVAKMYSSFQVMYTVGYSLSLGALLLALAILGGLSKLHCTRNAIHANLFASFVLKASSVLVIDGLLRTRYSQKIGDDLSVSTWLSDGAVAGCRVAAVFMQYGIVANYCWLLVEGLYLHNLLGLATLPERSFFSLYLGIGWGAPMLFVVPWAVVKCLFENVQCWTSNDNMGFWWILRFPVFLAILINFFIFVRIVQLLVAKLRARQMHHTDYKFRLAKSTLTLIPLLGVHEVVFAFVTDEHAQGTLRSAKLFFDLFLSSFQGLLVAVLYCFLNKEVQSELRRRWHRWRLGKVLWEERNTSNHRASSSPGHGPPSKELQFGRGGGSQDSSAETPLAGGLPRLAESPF
Sequence of Human GlucR (P47871 26-477): as above
Sequence of human serum albumin (P02768 25-609 limits assumed): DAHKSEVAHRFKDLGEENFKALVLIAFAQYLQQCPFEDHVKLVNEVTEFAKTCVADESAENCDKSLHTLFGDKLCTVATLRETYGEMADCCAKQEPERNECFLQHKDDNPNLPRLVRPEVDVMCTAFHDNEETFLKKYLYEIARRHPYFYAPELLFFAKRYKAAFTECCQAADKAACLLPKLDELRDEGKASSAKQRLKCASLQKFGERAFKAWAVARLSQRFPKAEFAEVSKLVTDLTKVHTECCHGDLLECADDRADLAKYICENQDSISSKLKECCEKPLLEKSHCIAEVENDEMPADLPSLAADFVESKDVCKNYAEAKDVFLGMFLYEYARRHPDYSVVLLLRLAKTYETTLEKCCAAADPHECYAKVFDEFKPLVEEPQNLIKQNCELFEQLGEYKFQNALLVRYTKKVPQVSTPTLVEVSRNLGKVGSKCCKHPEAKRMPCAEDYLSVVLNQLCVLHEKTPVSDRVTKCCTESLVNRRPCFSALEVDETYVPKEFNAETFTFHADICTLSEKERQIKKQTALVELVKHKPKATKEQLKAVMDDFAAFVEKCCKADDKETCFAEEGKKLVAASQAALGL

Molecule: CC(C)C[C@H](NC(=O)[C@H](Cc1ccc(O)cc1)NC(=O)[C@H](CCCCN)NC(=O)[C@H](CO)NC(=O)[C@H](Cc1ccc(O)cc1)NC(=O)[C@H](CC(=O)O)NC(=O)[C@H](CO)NC(=O)[C@@H](NC(=O)[C@H](Cc1ccccc1)NC(=O)[C@@H](NC(=O)CNC(=O)[C@H](CCC(N)=O)NC(=O)[C@H](CO)NC(=O)[C@@H](N)Cc1c[nH]cn1)[C@@H](C)O)[C@@H](C)O)C(=O)N[C@@H](CC(=O)O)C(=O)N[C@@H](CO)C(=O)N[C@@H](CCCNC(=N)N)C(=O)N[C@@H](CCCNC(=N)N)C(=O)N[C@@H](C)C(=O)N[C@@H](CCC(N)=O)C(=O)N[C@@H](CC(=O)O)C(=O)N[C@@H](Cc1ccccc1)C(=O)N[C@H](C(=O)N[C@@H](CCC(N)=O)C(=O)N[C@@H](Cc1c[nH]c2ccccc12)C(=O)N[C@@H](CC(C)C)C(=O)N[C@H](C(=O)N[C@@H](C)C(=O)NCC(=O)NCC(=O)N1CCC[C@H]1C(=O)N[C@@H](CO)C(=O)N[C@@H](CO)C(=O)NCC(=O)N[C@@H](C)C(=O)N1CCC[C@H]1C(=O)N1CCC[C@H]1C(=O)N1CCC[C@H]1C(=O)N[C@@H](CO)C(=O)N[C@@H](CCCCN)C(N)=O)C(C)C)C(C)C [g319] (H-HSQGTFTSDYSKYLDSRRAQDFVQWLVAGGPSSGAPPPSK-NH2; N-terminus assumed)
- EC50 [1]: 0.0104 nM

Molecule: HSQGTFTSDYSKK([γGlu-Palmitoyl])LDSERARDFVAWLVAGG-OH [G931]
- cAMP EC50 (assay 1) [5]: 0.0178 nM
- cAMP EC50 (assay 1) [6]: 0.13 nM

Molecule: HSQGTFTSDK([γGlu-Palmitoyl])SKYLEGQAAKEFIAWLEKGR-OH [G934]
- cAMP EC50 (assay 1) [5]: 0.0063 nM
- cAMP EC50 (assay 1) [6]: 0.018 nM
- cAMP EC50 (assay 1) [7]: 3.6 nM

Molecule: HSQGTFTSDKSRYLDSRSARDFVAWLEAGG (X10 = K(gE-palm); C-terminal amide) [G849]
- cAMP EC50 (assay 1) [8]: 17 nM
- cAMP EC50 (assay 1) [3]: 0.00907 nM
- free peptide at 4.4% HSA [9]: 0.48%

Molecule: HSQGTFTSDKSSYLDSRRARDFVAWLEAGG (X10 = K(gE-palm); C-terminal amide) [G796]
- cAMP EC50 (assay 1) [8]: 14 nM
- cAMP EC50 (assay 1) [3]: 0.014 nM
- cAMP EC50 (assay 2, 3.2% mouse serum albumin) [10]: 0.13 nM

Molecule: HSQGTFTSDKSKYLEGQAAKEFIAWLEKGR (X10 = K(gE-palm); C-terminal amide) [G812]
- cAMP EC50 (assay 2, 3.2% mouse serum albumin) [10]: 0.13 nM

Other lines, results leading:

- EC50 [1]: 0.92 nM
Molecule: CCCCCCCCCCCCCCCC(=O)N[C@@H](CCC(=O)NCCCC[C@H](NC(=O)[C@H](CO)NC(=O)[C@H](CC(=O)O)NC(=O)[C@H](CC(C)C)NC(=O)[C@H](Cc1ccc(O)cc1)NC(=O)[C@H](CCCCN)NC(=O)[C@H](CO)NC(=O)[C@H](Cc1ccc(O)cc1)NC(=O)[C@H](CC(=O)O)NC(=O)[C@H](CO)NC(=O)[C@@H](NC(=O)[C@H](Cc1ccccc1)NC(=O)[C@@H](NC(=O)CNC(=O)[C@H](CCC(N)=O)NC(=O)CNC(=O)[C@@H](N)Cc1c[nH]cn1)[C@@H](C)O)[C@@H](C)O)C(=O)N[C@@H](CCCNC(=N)N)C(=O)N[C@@H](C)C(=O)N[C@@H](C)C(=O)N[C@@H](CC(=O)O)C(=O)N[C@@H](Cc1ccccc1)C(=O)N[C@H](C(=O)N[C@@H](C)C(=O)N[C@@H](Cc1c[nH]c2ccccc12)C(=O)N[C@@H](CC(C)C)C(=O)N[C@H](C(=O)N[C@@H](C)C(=O)NCC(=O)NCC(N)=O)C(C)C)C(C)C)C(=O)O [g736] (H-HGQGTFTSDYSKYLDSK([γGlu-Palmitoyl])RAADFVAWLVAGG-NH2; N-terminus assumed)

- cAMP EC50 (assay 1) [2]: 0.00232 nM
- cAMP EC50 (assay 1) [3]: 0.0193 nM
- cAMP EC50 (assay 1) [4]: 12.8 nM
B1: g327 (peptide)
peptide: HSQGTFTSDYSKYLDSRRAQDFVQWLVAGGGGGGK([γGlu-Palmitoyl])-NH2
modifications: N-terminus assumed
SMILES: CCCCCCCCCCCCCCCC(=O)N[C@@H](CCC(=O)NCCCC[C@H](NC(=O)CNC(=O)CNC(=O)CNC(=O)CNC(=O)CNC(=O)CNC(=O)[C@H](C)NC(=O)[C@@H](NC(=O)[C@H](CC(C)C)NC(=O)[C@H](Cc1c[nH]c2ccccc12)NC(=O)[C@H](CCC(N)=O)NC(=O)[C@@H](NC(=O)[C@H](Cc1ccccc1)NC(=O)[C@H](CC(=O)O)NC(=O)[C@H](CCC(N)=O)NC(=O)[C@H](C)NC(=O)[C@H](CCCNC(=N)N)NC(=O)[C@H](CCCNC(=N)N)NC(=O)[C@H](CO)NC(=O)[C@H](CC(=O)O)NC(=O)[C@H](CC(C)C)NC(=O)[C@H](Cc1ccc(O)cc1)NC(=O)[C@H](CCCCN)NC(=O)[C@H](CO)NC(=O)[C@H](Cc1ccc(O)cc1)NC(=O)[C@H](CC(=O)O)NC(=O)[C@H](CO)NC(=O)[C@@H](NC(=O)[C@H](Cc1ccccc1)NC(=O)[C@@H](NC(=O)CNC(=O)[C@H](CCC(N)=O)NC(=O)[C@H](CO)NC(=O)[C@@H](N)Cc1c[nH]cn1)[C@@H](C)O)[C@@H](C)O)C(C)C)C(C)C)C(N)=O)C(=O)O

- cAMP EC50 (assay 1) [2]: 0.00355 nM
- cAMP EC50 (assay 1) [3]: 0.0106 nM
- cAMP EC50 (assay 1) [4]: 1.72 nM
B2: g322 (peptide)
peptide: HSQGTFTSDYSKYLDSRRAQDFVQWLVAGGKNNRNNIAK(Palmitoyl)-NH2
modifications: N-terminus assumed
SMILES: CCCCCCCCCCCCCCCC(=O)NCCCC[C@H](NC(=O)[C@H](C)NC(=O)[C@@H](NC(=O)[C@H](CC(N)=O)NC(=O)[C@H](CC(N)=O)NC(=O)[C@H](CCCNC(=N)N)NC(=O)[C@H](CC(N)=O)NC(=O)[C@H](CC(N)=O)NC(=O)[C@H](CCCCN)NC(=O)CNC(=O)CNC(=O)[C@H](C)NC(=O)[C@@H](NC(=O)[C@H](CC(C)C)NC(=O)[C@H](Cc1c[nH]c2ccccc12)NC(=O)[C@H](CCC(N)=O)NC(=O)[C@@H](NC(=O)[C@H](Cc1ccccc1)NC(=O)[C@H](CC(=O)O)NC(=O)[C@H](CCC(N)=O)NC(=O)[C@H](C)NC(=O)[C@H](CCCNC(=N)N)NC(=O)[C@H](CCCNC(=N)N)NC(=O)[C@H](CO)NC(=O)[C@H](CC(=O)O)NC(=O)[C@H](CC(C)C)NC(=O)[C@H](Cc1ccc(O)cc1)NC(=O)[C@H](CCCCN)NC(=O)[C@H](CO)NC(=O)[C@H](Cc1ccc(O)cc1)NC(=O)[C@H](CC(=O)O)NC(=O)[C@H](CO)NC(=O)[C@@H](NC(=O)[C@H](Cc1ccccc1)NC(=O)[C@@H](NC(=O)CNC(=O)[C@H](CCC(N)=O)NC(=O)[C@H](CO)NC(=O)[C@@H](N)Cc1c[nH]cn1)[C@@H](C)O)[C@@H](C)O)C(C)C)C(C)C)[C@@H](C)CC)C(N)=O

- cAMP EC50 (assay 1) [5]: 0.0089 nM
- cAMP EC50 (assay 1) [6]: 0.012 nM
- cAMP EC50 (assay 1) [7]: 47 nM
Molecule: HSQGTFTSDXSSYLDSRSARDFVAWLEAGG (X10 = K(gE-palm); C-terminal acid) [G973]

- cAMP EC50 (assay 1) [2]: 0.0279 nM
- cAMP EC50 (assay 1) [3]: 0.0272 nM
- cAMP EC50 (assay 1) [4]: 6.41 nM
Molecule: HSQGTFTSDYSKYLDSRRAQDFVQWLVAGGKNNRNNIAK-NH2 [g321]
